System: Escherichia coli TOP10
Assay: shrunken log2 fold change of peptide-encoding DNA abundance (4.5 h post-induction vs induction); higher = less antimicrobial activity (less host growth inhibition)
Settings: time post-induction: 4.5 h; library: site-saturation at positions 5, 18, 19, 20
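Further: peptides expressed intracellularly from a pBAD plasmid library in pooled LB shake-flask culture, induced with 0.3% L-arabinose, DNA abundance read by NGS, three biological replicates, DESeq2 with apeglm shrinkage.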

Row | Sequence | shrunken log2 fold change
1 | RRIRCRPPRLPRPRPRPCTHPRP | -0.48
2 | RRIRCRPPRLPRPRPRPCWHPRP | -0.169
3 | RRIRCRPPRLPRPRPRPCWQPRP | -0.0116
4 | RRIRCRPPRLPRPRPRPCWWPRP | 0.904
5 | RRIRCRPPRLPRPRPRPDAHPRP | -0.0835
6 | RRIRCRPPRLPRPRPRPDAIPRP | -0.0147
7 | RRIRCRPPRLPRPRPRPDAYPRP | -0.177
8 | RRIRCRPPRLPRPRPRPDCKPRP | -0.392
9 | RRIRCRPPRLPRPRPRPDEKPRP | 0.118
10 | RRIRCRPPRLPRPRPRPDHKPRP | -1.04
11 | RRIRCRPPRLPRPRPRPDICPRP | -0.22
12 | RRIRCRPPRLPRPRPRPDIEPRP | -0.0833
13 | RRIRCRPPRLPRPRPRPDIVPRP | -0.0875
14 | RRIRCRPPRLPRPRPRPDIWPRP | 0.116
15 | RRIRCRPPRLPRPRPRPDLLPRP | -0.393
16 | RRIRCRPPRLPRPRPRPDNNPRP | -0.661
17 | RRIRCRPPRLPRPRPRPDPFPRP | -0.187
18 | RRIRCRPPRLPRPRPRPDQRPRP | -0.254
19 | RRIRCRPPRLPRPRPRPDQWPRP | -0.197
20 | RRIRCRPPRLPRPRPRPDSHPRP | -0.199
21 | RRIRCRPPRLPRPRPRPDSTPRP | -0.235
22 | RRIRCRPPRLPRPRPRPDSYPRP | -0.286
23 | RRIRCRPPRLPRPRPRPDVGPRP | -0.0874
24 | RRIRCRPPRLPRPRPRPDVYPRP | 0.0165
25 | RRIRCRPPRLPRPRPRPDWCPRP | 0.27

Row | Sequence | shrunken log2 fold change
26 | RRIRCRPPRLPRPRPRPEAVPRP | 0.383
27 | RRIRCRPPRLPRPRPRPECPPRP | 0.293
28 | RRIRCRPPRLPRPRPRPECWPRP | 0.669
29 | RRIRCRPPRLPRPRPRPECYPRP | -0.238
30 | RRIRCRPPRLPRPRPRPEDCPRP | 0.173
31 | RRIRCRPPRLPRPRPRPEDRPRP | -0.0137
32 | RRIRCRPPRLPRPRPRPEFLPRP | -0.091
33 | RRIRCRPPRLPRPRPRPEFVPRP | 0.105
34 | RRIRCRPPRLPRPRPRPEGKPRP | 0.31
35 | RRIRCRPPRLPRPRPRPEIRPRP | -0.123
36 | RRIRCRPPRLPRPRPRPEKPPRP | 0.118
37 | RRIRCRPPRLPRPRPRPELSPRP | 0.52
38 | RRIRCRPPRLPRPRPRPEMLPRP | -0.077
39 | RRIRCRPPRLPRPRPRPEMVPRP | -0.0828
40 | RRIRCRPPRLPRPRPRPEPCPRP | -0.0257
41 | RRIRCRPPRLPRPRPRPEREPRP | 0.108
42 | RRIRCRPPRLPRPRPRPESAPRP | 0.703
43 | RRIRCRPPRLPRPRPRPESHPRP | 0.0129
44 | RRIRCRPPRLPRPRPRPESRPRP | 0.276
45 | RRIRCRPPRLPRPRPRPESYPRP | -0.336
46 | RRIRCRPPRLPRPRPRPETCPRP | 0.0181
47 | RRIRCRPPRLPRPRPRPEYQPRP | 0.123
48 | RRIRCRPPRLPRPRPRPFADPRP | -0.45
49 | RRIRCRPPRLPRPRPRPFALPRP | -0.33
50 | RRIRCRPPRLPRPRPRPFCAPRP | -0.00432

Row | Sequence | shrunken log2 fold change
51 | RRIRCRPPRLPRPRPRPFCNPRP | -0.428
52 | RRIRCRPPRLPRPRPRPFDNPRP | -0.437
53 | RRIRCRPPRLPRPRPRPFDWPRP | -0.0737
54 | RRIRCRPPRLPRPRPRPFELPRP | -0.0697
55 | RRIRCRPPRLPRPRPRPFGDPRP | -0.00748
56 | RRIRCRPPRLPRPRPRPFHWPRP | -0.195
57 | RRIRCRPPRLPRPRPRPFIGPRP | -0.228
58 | RRIRCRPPRLPRPRPRPFKTPRP | -0.478
59 | RRIRCRPPRLPRPRPRPFMAPRP | -0.15
60 | RRIRCRPPRLPRPRPRPFMDPRP | -0.361
61 | RRIRCRPPRLPRPRPRPFMRPRP | 0.0501
62 | RRIRCRPPRLPRPRPRPFMVPRP | -0.502
63 | RRIRCRPPRLPRPRPRPFNWPRP | -0.648
64 | RRIRCRPPRLPRPRPRPFRAPRP | -0.277
65 | RRIRCRPPRLPRPRPRPFRKPRP | -0.0377
66 | RRIRCRPPRLPRPRPRPFRNPRP | -0.0491
67 | RRIRCRPPRLPRPRPRPFSVPRP | -0.236
68 | RRIRCRPPRLPRPRPRPFVGPRP | -0.315
69 | RRIRCRPPRLPRPRPRPFVVPRP | -0.633
70 | RRIRCRPPRLPRPRPRPFWAPRP | -0.0403
71 | RRIRCRPPRLPRPRPRPFWPPRP | 0.161
72 | RRIRCRPPRLPRPRPRPFWRPRP | 0.0785
73 | RRIRCRPPRLPRPRPRPFYGPRP | -0.262
74 | RRIRCRPPRLPRPRPRPGCMPRP | 0.00195
75 | RRIRCRPPRLPRPRPRPGCYPRP | -0.501

Row | Sequence | shrunken log2 fold change
76 | RRIRCRPPRLPRPRPRPGECPRP | 0.198
77 | RRIRCRPPRLPRPRPRPGFRPRP | 0.498
78 | RRIRCRPPRLPRPRPRPGGCPRP | 0.153
79 | RRIRCRPPRLPRPRPRPGGKPRP | -0.0361
80 | RRIRCRPPRLPRPRPRPGGTPRP | -0.0298
81 | RRIRCRPPRLPRPRPRPGHWPRP | 0.0171
82 | RRIRCRPPRLPRPRPRPGIDPRP | 0.0673
83 | RRIRCRPPRLPRPRPRPGKTPRP | 0.102
84 | RRIRCRPPRLPRPRPRPGLAPRP | 0.544
85 | RRIRCRPPRLPRPRPRPGLEPRP | 0.203
86 | RRIRCRPPRLPRPRPRPGLRPRP | 0.147
87 | RRIRCRPPRLPRPRPRPGMKPRP | 0.062
88 | RRIRCRPPRLPRPRPRPGNEPRP | -0.154
89 | RRIRCRPPRLPRPRPRPGNQPRP | -0.644
90 | RRIRCRPPRLPRPRPRPGPVPRP | 0.239
91 | RRIRCRPPRLPRPRPRPGQHPRP | 0.00766
92 | RRIRCRPPRLPRPRPRPGRAPRP | 0.453
93 | RRIRCRPPRLPRPRPRPGRVPRP | 0.288
94 | RRIRCRPPRLPRPRPRPGTTPRP | 0.844
95 | RRIRCRPPRLPRPRPRPGVEPRP | 0.0401
96 | RRIRCRPPRLPRPRPRPGVIPRP | -0.0294
97 | RRIRCRPPRLPRPRPRPGVRPRP | 0.32
98 | RRIRCRPPRLPRPRPRPGVYPRP | -0.0723
99 | RRIRCRPPRLPRPRPRPGWCPRP | -0.0717
100 | RRIRCRPPRLPRPRPRPGWLPRP | 0.801

Row | Sequence | shrunken log2 fold change
101 | RRIRCRPPRLPRPRPRPGWYPRP | -0.244
102 | RRIRCRPPRLPRPRPRPGYPPRP | -0.00859
103 | RRIRCRPPRLPRPRPRPHAKPRP | -0.446
104 | RRIRCRPPRLPRPRPRPHAQPRP | 0.0778
105 | RRIRCRPPRLPRPRPRPHASPRP | -0.224
106 | RRIRCRPPRLPRPRPRPHCKPRP | -0.348
107 | RRIRCRPPRLPRPRPRPHCRPRP | -0.0478
108 | RRIRCRPPRLPRPRPRPHDCPRP | -0.0825
109 | RRIRCRPPRLPRPRPRPHDFPRP | -0.0215
110 | RRIRCRPPRLPRPRPRPHDQPRP | 0.0433
111 | RRIRCRPPRLPRPRPRPHECPRP | -0.3
112 | RRIRCRPPRLPRPRPRPHETPRP | -0.035
113 | RRIRCRPPRLPRPRPRPHFTPRP | -0.677
114 | RRIRCRPPRLPRPRPRPHFYPRP | -0.305
115 | RRIRCRPPRLPRPRPRPHGAPRP | 0.0255
116 | RRIRCRPPRLPRPRPRPHHGPRP | -0.261
117 | RRIRCRPPRLPRPRPRPHHTPRP | -1.04
118 | RRIRCRPPRLPRPRPRPHINPRP | -0.501
119 | RRIRCRPPRLPRPRPRPHIQPRP | -0.73
120 | RRIRCRPPRLPRPRPRPHISPRP | -0.535
121 | RRIRCRPPRLPRPRPRPHITPRP | -0.704
122 | RRIRCRPPRLPRPRPRPHIWPRP | -0.6
123 | RRIRCRPPRLPRPRPRPHKDPRP | -0.636
124 | RRIRCRPPRLPRPRPRPHLCPRP | -0.111
125 | RRIRCRPPRLPRPRPRPHLHPRP | -0.626

Row | Sequence | shrunken log2 fold change
126 | RRIRCRPPRLPRPRPRPHLMPRP | -0.223
127 | RRIRCRPPRLPRPRPRPHMEPRP | -0.194
128 | RRIRCRPPRLPRPRPRPHQVPRP | -0.288
129 | RRIRCRPPRLPRPRPRPHRCPRP | -0.128
130 | RRIRCRPPRLPRPRPRPHRDPRP | -0.3
131 | RRIRCRPPRLPRPRPRPHRFPRP | -0.0713
132 | RRIRCRPPRLPRPRPRPHRVPRP | 0.135
133 | RRIRCRPPRLPRPRPRPHSLPRP | -0.493
134 | RRIRCRPPRLPRPRPRPHTGPRP | -0.341
135 | RRIRCRPPRLPRPRPRPHTPPRP | 0.0337
136 | RRIRCRPPRLPRPRPRPHTRPRP | -0.372
137 | RRIRCRPPRLPRPRPRPHVDPRP | -0.617
138 | RRIRCRPPRLPRPRPRPHVSPRP | -0.37
139 | RRIRCRPPRLPRPRPRPHVYPRP | -0.899
140 | RRIRCRPPRLPRPRPRPHWCPRP | -0.155
141 | RRIRCRPPRLPRPRPRPHWWPRP | 0.0398
142 | RRIRCRPPRLPRPRPRPHYRPRP | 0.127
143 | RRIRCRPPRLPRPRPRPIARPRP | 0.19
144 | RRIRCRPPRLPRPRPRPIASPRP | -0.0344
145 | RRIRCRPPRLPRPRPRPICCPRP | -0.166
146 | RRIRCRPPRLPRPRPRPICDPRP | -0.0093
147 | RRIRCRPPRLPRPRPRPIDRPRP | -0.0643
148 | RRIRCRPPRLPRPRPRPIEAPRP | -0.108
149 | RRIRCRPPRLPRPRPRPIEEPRP | 0.008
150 | RRIRCRPPRLPRPRPRPIFPPRP | 0.247
